We go through three molecules from PMC11718114 (Nature Communications, 2025).

Conditions in all cases: both partners purified
Assay [1] has as its target T1, PI3Kα-RBD, PIK3CA-RBD(157-289) (human, UniProt P42336 157-289).
T1 construct: also called PI3Ka-RBD; p110α-RBD; source: E. coli, purified (IMAC, TEV cleavage, second IMAC, SEC); not shown: His6, N-terminal, cleaved; MBP, N-terminal, cleaved
Kind of assay: ITC; RAS GTPase (GMPPNP-bound, 300–500 μM) in the syringe, PI3K isoform or PI3Kα-RBD (30–50 μM) in the cell; 25 °C; 20 mM HEPES pH 7.4, 150 mM NaCl, 5 mM MgCl2, 1 mM TCEP; one set of sites; two replicates.

The target in assay [2] is T2, PI3Kα: p110α(2-1068)W1057A/I1058A/F1059A + p85(322-600) (human, UniProt P42336 2-1068; P27986 322-600, W1057A | I1058A | F1059A).
T2 construct: human PIK3CA (p110α), residues 2-1068; human PIK3R1 (p85α), residues 322-600 (nSH2-iSH2), untagged; also called PI3Ka; PI3Kα (p110α + p85); source: insect cells (baculovirus), co-expressed, purified (IMAC, TEV cleavage, second IMAC, anion exchange, SEC); not shown: His6, N-terminal, cleaved; MBP, N-terminal, cleaved
The assay is described as above.

In assay [3] the target is T3, PI3Kα-RBD (PIK3CA-RBD(157-289)) (human, UniProt P42336 157-289).
T3 construct: also called p110α-RBD; p110α RBD; source: E. coli, purified (IMAC, TEV cleavage, second IMAC, SEC); not shown: His6, N-terminal, cleaved; MBP, N-terminal, cleaved
Kind of assay: ITC; GMPPNP-bound RAS (300–500 μM) in the syringe, PI3K isoform or PI3Kα-RBD (30–50 μM) in the cell; 25 °C; 20 mM HEPES pH 7.4, 150 mM NaCl, 5 mM MgCl2, 1 mM TCEP; one set of sites; duplicates. Background: ITC needs no label: the signal is the heat of the interaction.

Assay [4] addresses T4, PI3Kα: p110α(2-1068) W1057A/I1058A/F1059A + p85(322-600) (human, UniProt P42336 2-1068; P27986 322-600, W1057A | I1058A | F1059A).
T4 construct: PIK3CA (p110α, catalytic subunit of PI3Kα), human, residues 2-1068; PIK3R1 (p85α regulatory subunit), human, residues 322-600 (nSH2-iSH2), untagged; also called PIK3CA(2-1068)W1057A/I1058A/F1059A + PIK3R1(322-600); p110α/p85; source: insect cells (baculovirus), co-expressed, purified (IMAC, TEV cleavage, second IMAC, anion exchange, SEC); not shown: His6, N-terminal, cleaved; MBP, N-terminal, …
The description is as above.

B1: RRAS2(1-179)-Q36A, GMPPNP-bound (domain or fragment, human, UniProt P62070 1-179, looked up)
chain: MAAAGWRDGSGQEKYRLVVVGGGGVGKSALTIQFIASYFVTDYDPTIEDSYTKQCVIDDRAARLDILDTAGQEEFGAMREQYMRTGEGFLLVFSVTDRGSFEEIYKFQRQILRVKDRDEFPMILIGNKADLDHQRQVTQEEGQQLARQLKVTYMEASAKIRMNVDQAFHELVRVIRKFQ
notes: limits for the ITC are not separately stated; also called RRAS2-Q36A; source: E. coli, purified (IMAC, TEV cleavage, second IMAC, SEC); not shown: His6, N-terminal, cleaved; MBP, N-terminal, cleaved
On to B1, for which, in assay [1], the Kd – broadly, the free concentration of one partner at which half of the binding sites on the other are occupied at equilibrium, for simple one-to-one binding – stood at 4.9 µM and the stoichiometry N (as a rule, the number of molecules, sites or subunits per partner or assembly) amounted to 1.12 sites. In addition, in assay [2], the Kd turned out to be 2.1 µM and the “stoichiometry N” value was determined as 0.95 sites.

B2: RRAS2(1-179)-Q36A (domain or fragment, human, UniProt P62070 1-179, looked up)
chain: MAAAGWRDGSGQEKYRLVVVGGGGVGKSALTIQFIASYFVTDYDPTIEDSYTKQCVIDDRAARLDILDTAGQEEFGAMREQYMRTGEGFLLVFSVTDRGSFEEIYKFQRQILRVKDRDEFPMILIGNKADLDHQRQVTQEEGQQLARQLKVTYMEASAKIRMNVDQAFHELVRVIRKFQ
notes: RRAS2 (TC21), human, residues 1-179; Limits 1-179 are stated for the crystals; also called RRAS2-Q36A; source: E. coli, purified (IMAC, TEV cleavage, second IMAC, SEC); exchanged to GMPPNP; not shown: His6, N-terminal, cleaved; MBP, N-terminal, cleaved
In the case of B2, in assay [3], the “fold increase in binding affinity against wild-type RRAS2” value was 2 fold.

B3: RRAS(22-192) (domain or fragment, human, UniProt P10301 22-192, looked up)
chain: GDPPPSETHKLVVVGGGGVGKSALTIQFIQSYFVSDYDPTIEDSYTKICSVDGIPARLDILDTAGQEEFGAMREQYMRAGHGFLLVFAINDRQSFNEVGKLFTQILRVKDRDDFPVVLVGNKADLESQRQVPRSEASAFGASHHVAYFEASAKLRLNVDEAFEQLVRAVRK
notes: source: E. coli, purified (IMAC, TEV cleavage, second IMAC, SEC); exchanged to GMPPNP; not shown: His6, N-terminal, cleaved; MBP, N-terminal, cleaved
Regarding B3, the binding result in assay [4] and in assay [3] was “binds” each time.
